Results reported in patent publication US20180305465A1.

Assays:
[1] = biological target: Recombinant human CD3ε-Fc (human); test: Absolute KD; SPR, Biacore T200, CD3ε-Fc amine coupled to CM5 at lowest usable density; koff/kon, 1:1 global fit
[2] = biological target: Recombinant minimally biotinylated human CD38-His (Fisher Scientific) (human) (UniProt P28907); test: Absolute KD; BLI, Octet HTX, CD38-His at five loading levels 0.3-2 nm, plateau of measured KD as loading decreases
[3] = biological target: Recombinant minimally biotinylated cynomolgus CD38-His (Sino Biological Inc.) (cynomolgus) (UniProt Q5VAN0); test: as above
Chain of Recombinant minimally biotinylated cynomolgus CD38-His (Sino Biological Inc.) (cynomolgus) (Q5VAN0 44-301 limits assumed): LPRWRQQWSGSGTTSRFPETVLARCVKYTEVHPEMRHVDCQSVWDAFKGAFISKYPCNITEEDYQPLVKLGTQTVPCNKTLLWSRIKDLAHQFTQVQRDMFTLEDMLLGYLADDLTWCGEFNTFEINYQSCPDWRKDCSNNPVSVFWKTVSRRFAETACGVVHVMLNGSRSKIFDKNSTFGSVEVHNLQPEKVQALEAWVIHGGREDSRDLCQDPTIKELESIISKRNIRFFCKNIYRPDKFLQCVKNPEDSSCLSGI

[4] = biological target: Recombinant human CD3ε-Fc (human); test: SPR, SensiQ Pioneer FE; CD3ε-Fc amine coupled to CM5 chip; equilibrium analysis
[5] = biological target: Recombinant cynomolgus CD3ε-Fc (cynomolgus) (UniProt Q95LI5); test: as above
Chain of Recombinant cynomolgus CD3ε-Fc (cynomolgus) (Q95LI5 22-117 limits assumed): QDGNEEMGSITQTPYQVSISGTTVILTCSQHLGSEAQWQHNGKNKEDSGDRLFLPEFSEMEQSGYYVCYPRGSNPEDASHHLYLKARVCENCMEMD

[6] = biological target: cynomolgus CD38 on cynomolgus B cells (PBMCs) (cynomolgus) (UniProt Q5VAN0); test: cell-based or functional assay
Chain of cynomolgus CD38 on cynomolgus B cells (PBMCs) (cynomolgus) (Q5VAN0 whole entry): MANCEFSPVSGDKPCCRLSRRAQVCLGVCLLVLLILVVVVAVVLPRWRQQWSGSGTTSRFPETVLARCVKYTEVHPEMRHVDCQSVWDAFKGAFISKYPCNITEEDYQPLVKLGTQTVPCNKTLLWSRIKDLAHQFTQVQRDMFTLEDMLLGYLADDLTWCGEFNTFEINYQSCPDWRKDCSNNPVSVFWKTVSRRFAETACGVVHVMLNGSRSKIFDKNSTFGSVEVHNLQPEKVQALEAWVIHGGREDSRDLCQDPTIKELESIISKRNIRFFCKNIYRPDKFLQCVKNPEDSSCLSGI

[7] = biological target: Recombinant minimally biotinylated human CD38-His (Fisher Scientific) (human) (UniProt P28907); test: BLI, Octet HTX; biotinylated CD38-His on streptavidin tips (2 nm), antibody in solution; 1:1 model, kd/ka
[8] = biological target: Recombinant minimally biotinylated cynomolgus CD38-His (Sino Biological Inc.) (cynomolgus) (UniProt Q5VAN0); test: as above

Chain of Recombinant human CD3ε-Fc (human) (chain, as listed by the source): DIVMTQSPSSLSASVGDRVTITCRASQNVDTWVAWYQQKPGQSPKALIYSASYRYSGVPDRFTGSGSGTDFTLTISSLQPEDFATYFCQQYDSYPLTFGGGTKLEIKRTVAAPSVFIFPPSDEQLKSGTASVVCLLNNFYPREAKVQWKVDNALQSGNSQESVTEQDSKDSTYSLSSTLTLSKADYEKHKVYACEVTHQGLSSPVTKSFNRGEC
Chain of Recombinant minimally biotinylated human CD38-His (Fisher Scientific) (human) (P28907 43-300 limits assumed): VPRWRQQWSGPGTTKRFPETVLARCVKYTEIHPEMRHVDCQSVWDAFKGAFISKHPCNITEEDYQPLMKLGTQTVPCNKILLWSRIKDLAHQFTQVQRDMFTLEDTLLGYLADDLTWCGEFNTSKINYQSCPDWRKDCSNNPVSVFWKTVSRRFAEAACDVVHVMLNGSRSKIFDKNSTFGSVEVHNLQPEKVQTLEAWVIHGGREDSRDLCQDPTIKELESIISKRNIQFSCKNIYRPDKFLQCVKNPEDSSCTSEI

XmAb18968 (412220) (bispecific antibody)
Kd [1]: 35.6 nM
Kd [2]: 8.9 nM
Kd [3]: 7.5 nM
Kd [4]: 29.7 nM
Kd [5]: 33.5 nM
Cyno B Cell TDCC EC50 [6]: 0.082 nM
Kd [7]: 2.5 nM
Kd [8]: 2.8 nM
